From the supplement of paper PMC10567573

B1: ZNF649 (parent)
chain: EHERAHRGEKPHGCSLCGKAFYKR

Variants of: B1
Test: protein stability index of a GFP-peptide fusion (GPS, HEK-293T) (PSI 1-6); higher = more stable
Conditions: c terminus: a fixed tail appended
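Further: lentivirally expressed fusions sorted by FACS into six bins by GFP to DsRed ratio, PSI derived from sequencing read proportions per bin multiplied by bin number.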

Row | Variant | protein stability index
1 | EHERAHRGEKPHGCSLFGKAFYKR | 3.48
2 | EHERAHRGEKPHGCSLHGKAFYKR | 3.67
3 | EHERAHRGEKPHGCSLRGKAFYKR | 4.43
4 | EHERAHRGEKPHGCSLIGKAFYKR | 3.81
5 | EHERAHRGEKPHGCSLYGKAFYKR | 2.48
6 | EHERAHRGEKPHGCSLGGKAFYKR | 4.07
7 | EHERAHRGEKPHGCSLEGKAFYKR | 2.58
8 | EHERAHRGEKPHGCSLVGKAFYKR | 3.18
9 | EHERAHRGEKPHGCSLWGKAFYKR | 3
10 | EHERAHRGEKPHGCSLCGKAFPKR | 1.52
11 | EHERAHRGEKPHGCSLCGKAFMKR | 2.69
12 | EHERAHRGEKPHGCSLCGKAFTKR | 1.93
13 | EHERAHRGEKPHGCSLCGKAFLKR | 2.68
14 | EHERAHRGMKPHGCSLCGKAFYKR | 2.08
15 | EHERAHRGWKPHGCSLCGKAFYKR | 1.59
16 | EHERAHRGTKPHGCSLCGKAFYKR | 1.81
17 | EHERAHRGFKPHGCSLCGKAFYKR | 2.21
18 | EHERAHRGCKPHGCSLCGKAFYKR | 3.6
19 | EHERAHRGVKPHGCSLCGKAFYKR | 1.42
20 | EHERAHHGEKPHGCSLCGKAFYKR | 2.31
21 | EHERAHWGEKPHGCSLCGKAFYKR | 2.02
22 | EHERAHSGEKPHGCSLCGKAFYKR | 2.23
23 | EHERAHEGEKPHGCSLCGKAFYKR | 1.95
24 | EHERAHMGEKPHGCSLCGKAFYKR | 2.72

Row | Variant | protein stability index
25 | EHERAHFGEKPHGCSLCGKAFYKR | 1.32
26 | EHERAHQGEKPHGCSLCGKAFYKR | 2.02
27 | EHERAHRGEKPHGCSDCGKAFYKR | 3.82
28 | EHERAHRGEKPHGCSNCGKAFYKR | 2.07
29 | EHERAHRGEKPHGCSFCGKAFYKR | 1.83
30 | EHERAHRGEKPHGCSKCGKAFYKR | 2.79
31 | EHERAHRGEKPHGCSCCGKAFYKR | 3.54
32 | EHERAHRGEKPHGCSRCGKAFYKR | 2.18
33 | EHERAHRGEKPHGCSTCGKAFYKR | 2.16
34 | EHERAHRGEKPHGCSPCGKAFYKR | 3.48
35 | EHERAHRGEKPHGCSVCGKAFYKR | 3.34
36 | EHERAHRGEKPHGCSMCGKAFYKR | 1.74
37 | EHERAHRGEKPHGCSQCGKAFYKR | 3.02
38 | EHERAHRGEKPHGCSLCVKAFYKR | 2
39 | EHERAHRGEKPHGCSLCHKAFYKR | 2.15
40 | EHERAHRGEKPHGCSLCYKAFYKR | 1.85
41 | EHERAHRGEKPHGCSLCTKAFYKR | 2.34
42 | EHERAHRGEKPHGCSLCRKAFYKR | 3.06
43 | EHERAHRGEKPHGCSLCCKAFYKR | 1.59
44 | EHERAHRGEKPHGCSLCSKAFYKR | 2.5
45 | EHERAHRGEKPHGCSLCEKAFYKR | 2.77
46 | EHERAHRGEKPHGCSLCLKAFYKR | 2.42
47 | EHERAHRGEKPHGCSLCAKAFYKR | 1.43
48 | EHERAHRGEKPHGCSLCMKAFYKR | 1.72

Row | Variant | protein stability index
49 | EHERAHRGEKPHGCSLCQKAFYKR | 1.89
50 | EHERAHRGEKPHGCSLCGKYFYKR | 1.75
51 | EHERAHRGEKPHGCSLCGKDFYKR | 2.51
52 | EHERAHRGEKPHGCSLCGKIFYKR | 1.95
53 | EHERAHRGEKPHGCSLCGKNFYKR | 1.83
54 | EHERAHRGEKPHGCSLCGKFFYKR | 2.57
55 | EHERAHRGEKPHGCSLCGKMFYKR | 2.62
56 | EHERAHRGEKPHGCSLCGKTFYKR | 2.17
57 | EHERAHRGEKPHGCSLCGKRFYKR | 2.78
58 | EHEHAHRGEKPHGCSLCGKAFYKR | 2.05
59 | EHEVAHRGEKPHGCSLCGKAFYKR | 2.93
60 | EHECAHRGEKPHGCSLCGKAFYKR | 3.31
61 | EHEEAHRGEKPHGCSLCGKAFYKR | 2.14
62 | EHEMAHRGEKPHGCSLCGKAFYKR | 2.08
63 | EHEGAHRGEKPHGCSLCGKAFYKR | 2.55
64 | EHEYAHRGEKPHGCSLCGKAFYKR | 1.5
65 | EHEQAHRGEKPHGCSLCGKAFYKR | 1.59
66 | EHEWAHRGEKPHGCSLCGKAFYKR | 1.88
67 | EHERYHRGEKPHGCSLCGKAFYKR | 2.58
68 | EHERWHRGEKPHGCSLCGKAFYKR | 1.62
69 | EHERFHRGEKPHGCSLCGKAFYKR | 2.8
70 | EHERSHRGEKPHGCSLCGKAFYKR | 1.09
71 | EHERHHRGEKPHGCSLCGKAFYKR | 2.23
72 | EHEREHRGEKPHGCSLCGKAFYKR | 1.83

Row | Variant | protein stability index
73 | EHERKHRGEKPHGCSLCGKAFYKR | 1.74
74 | EHERNHRGEKPHGCSLCGKAFYKR | 2.18
75 | EHERVHRGEKPHGCSLCGKAFYKR | 1.62
76 | EHERAHRGEKPHGCSLCGKAFYIR | 1.92
77 | EHERAHRGEKPHGCSLCGKAFYGR | 2.65
78 | EHERAHRGEKPHGCSLCGKAFYMR | 3
79 | EHERAHRGEKPHGCSLCGKAFYHR | 1.83
80 | EHERAHRGEKPHGCSLCGKAFYKA | 3.46
81 | EHERAHRGEKPHGCSLCGKAFYKS | 4.19
82 | EHERAHRGEKPHGCSLCGKAFYKY | 3.5
83 | EHERAHRGEKPHGCSLCGKAFYKD | 3.35
84 | EHERAHRGEKPHGCSLCGKAFYKC | 4.03
85 | EHERAHRGEKPHGCSLCGKAFYKT | 4.1
86 | EHERAHRGEKPHGCSLCGKAFYKW | 3.25
87 | EHERAHRGEKPHGCSLCGKAFYKG | 3.11
88 | EHERAHRKEKPHGCSLCGKAFYKR | 2.27
89 | EHERAHRMEKPHGCSLCGKAFYKR | 1.8
90 | EHERAHRWEKPHGCSLCGKAFYKR | 2.21
91 | EHERAHRDEKPHGCSLCGKAFYKR | 1.93
92 | EHERAHRSEKPHGCSLCGKAFYKR | 1.99
93 | EHERAHRYEKPHGCSLCGKAFYKR | 3.18
94 | EHERAHRGEKPQGCSLCGKAFYKR | 2.18
95 | EHERAHRGEKPPGCSLCGKAFYKR | 1.7
96 | EHERAHRGEKPNGCSLCGKAFYKR | 1.47

Row | Variant | protein stability index
97 | EHERAHRGEKPGGCSLCGKAFYKR | 1.89
98 | EHERAHRGEKPIGCSLCGKAFYKR | 4.08
99 | EHERAHRGEKPMGCSLCGKAFYKR | 3.47
100 | EHERAHRGEKPWGCSLCGKAFYKR | 1.64
101 | EFERAHRGEKPHGCSLCGKAFYKR | 2.8
102 | ENERAHRGEKPHGCSLCGKAFYKR | 1.93
103 | ETERAHRGEKPHGCSLCGKAFYKR | 3.15
104 | EQERAHRGEKPHGCSLCGKAFYKR | 3.21
105 | EWERAHRGEKPHGCSLCGKAFYKR | 1.03
106 | EVERAHRGEKPHGCSLCGKAFYKR | 1.07
107 | EYERAHRGEKPHGCSLCGKAFYKR | 1.65
108 | EMERAHRGEKPHGCSLCGKAFYKR | 2.06
109 | ESERAHRGEKPHGCSLCGKAFYKR | 1.75
110 | EDERAHRGEKPHGCSLCGKAFYKR | 2
111 | EHERAHRGEKWHGCSLCGKAFYKR | 1.9
112 | EHERAHRGEKCHGCSLCGKAFYKR | 2.51
113 | EHERAHRGEKRHGCSLCGKAFYKR | 1.45
114 | EHERAHRGEKEHGCSLCGKAFYKR | 3.19
115 | EHERAHRGEKNHGCSLCGKAFYKR | 2.33
116 | EHERAHRGEKYHGCSLCGKAFYKR | 2.01
117 | EHERAHRGEKPHNCSLCGKAFYKR | 2.89
118 | EHERAHRGEKPHLCSLCGKAFYKR | 2.2
119 | EHERAHRGEKPHSCSLCGKAFYKR | 1.95
120 | EHERAHRGEKPHTCSLCGKAFYKR | 2.42

Row | Variant | protein stability index
121 | EHERAHRGEKPHCCSLCGKAFYKR | 1.9
122 | EHERAHRGEKPHACSLCGKAFYKR | 2.43
123 | EHERAHRGEKPHECSLCGKAFYKR | 2.48
124 | EHERAHRGEKPHPCSLCGKAFYKR | 1.88
125 | EHERAHRGEKPHYCSLCGKAFYKR | 3.31
126 | EHCRAHRGEKPHGCSLCGKAFYKR | 2.74
127 | EHYRAHRGEKPHGCSLCGKAFYKR | 1.95
128 | EHLRAHRGEKPHGCSLCGKAFYKR | 1.92
129 | EHIRAHRGEKPHGCSLCGKAFYKR | 1.78
130 | EHDRAHRGEKPHGCSLCGKAFYKR | 2.01
131 | EHFRAHRGEKPHGCSLCGKAFYKR | 2.67
132 | EHMRAHRGEKPHGCSLCGKAFYKR | 1.61
133 | EHNRAHRGEKPHGCSLCGKAFYKR | 2.47
134 | EHTRAHRGEKPHGCSLCGKAFYKR | 1.89
135 | EHGRAHRGEKPHGCSLCGKAFYKR | 1.81
136 | EHERAHRGEYPHGCSLCGKAFYKR | 1.7
137 | EHERAHRGEIPHGCSLCGKAFYKR | 1.69
138 | EHERAHRGEMPHGCSLCGKAFYKR | 2.28
139 | EHERAHRGEWPHGCSLCGKAFYKR | 1.67
140 | EHERAHRGERPHGCSLCGKAFYKR | 1.01
141 | EHERAHRGEDPHGCSLCGKAFYKR | 2.27
142 | EHERAHRGEKPHGCSLCGKAGYKR | 2.11
143 | EHERAHRGEKPHGCSLCGKALYKR | 3.61
144 | EHERAHRGEKPHGCSLCGKAHYKR | 3.38

Row | Variant | protein stability index
145 | EHERAHRGEKPHGCSLCGKASYKR | 2.13
146 | EHERAYRGEKPHGCSLCGKAFYKR | 1.61
147 | EHERAMRGEKPHGCSLCGKAFYKR | 2.27
148 | EHERAKRGEKPHGCSLCGKAFYKR | 1.04
149 | EHERAGRGEKPHGCSLCGKAFYKR | 1.21
150 | EHERAERGEKPHGCSLCGKAFYKR | 1.06
151 | EHERANRGEKPHGCSLCGKAFYKR | 2.06
152 | EHERAFRGEKPHGCSLCGKAFYKR | 2.04
153 | EHERAVRGEKPHGCSLCGKAFYKR | 1.58
154 | EHERALRGEKPHGCSLCGKAFYKR | 1.61
155 | EHERAIRGEKPHGCSLCGKAFYKR | 1.54
156 | DHERAHRGEKPHGCSLCGKAFYKR | 2.2
157 | RHERAHRGEKPHGCSLCGKAFYKR | 1.7
158 | NHERAHRGEKPHGCSLCGKAFYKR | 1.69
159 | QHERAHRGEKPHGCSLCGKAFYKR | 2.07
160 | IHERAHRGEKPHGCSLCGKAFYKR | 1.49
161 | YHERAHRGEKPHGCSLCGKAFYKR | 2.38
162 | VHERAHRGEKPHGCSLCGKAFYKR | 2.77
163 | EHERAHRGEKPHGCLLCGKAFYKR | 2.27
164 | EHERAHRGEKPHGCALCGKAFYKR | 1.84
165 | EHERAHRGEKPHGCYLCGKAFYKR | 2.48
166 | EHERAHRGEKPHGCNLCGKAFYKR | 2.39
167 | EHERAHRGEKPHGCPLCGKAFYKR | 4.16
168 | EHERAHRGEKPHGCHLCGKAFYKR | 5.95

Row | Variant | protein stability index
169 | EHERAHRGEKPHGCILCGKAFYKR | 2.01
170 | EHERAHRGEKPHGCGLCGKAFYKR | 1.56
171 | EHERAHRGEKPHGCWLCGKAFYKR | 1.72
172 | EHERAHRGEKPHGFSLCGKAFYKR | 2.69
173 | EHERAHRGEKPHGHSLCGKAFYKR | 4.25
174 | EHERAHRGEKPHGRSLCGKAFYKR | 3.73
175 | EHERAHRGEKPHGYSLCGKAFYKR | 3.56
176 | EHERAHRGEKPHGASLCGKAFYKR | 4.66
177 | EHERAHRGEKPHGVSLCGKAFYKR | 4.78
178 | EHERAHRGEKPHGGSLCGKAFYKR | 4.18
179 | EHERAHRGEKPHGDSLCGKAFYKR | 4.54
180 | EHERAHRGEKPHGSSLCGKAFYKR | 4.83
181 | EHERAHRGEKPHGPSLCGKAFYKR | 3.12
182 | EHERAHRGEKPHGLSLCGKAFYKR | 3.94
183 | EHERAHRGEKPHGCSLCGTAFYKR | 1.97
184 | EHERAHRGEKPHGCSLCGHAFYKR | 2.44
185 | EHERAHRGEKPHGCSLCGVAFYKR | 1.44
186 | EHERAHRGEKPHGCSLCGAAFYKR | 1.61
187 | EHERAHRGEKPHGCSLCGPAFYKR | 1.42
188 | EHERAHRGEKPHGCSLCGYAFYKR | 2.19
